This passage reports pKd results from PMC9482650, “Quantitative fragmentomics allow affinity mapping of interactomes” (Nature Communications, 2022).

Some targets named below: HTRA1, Q92743; NHERF4_4, Q86UT5; PDZRN4_1, Q6ZMN7; DLG1_2, Q12959; MAGI2_2, Q86UL8; LIMK2, P53671; MAGI2_3, Q86UL8.
Common to all, as to assay: holdup assay
What all share (parameters): key: below the threshold = too weak to quantify, mostly under pKd 3.1 to 4
Common to all, as to conditions: plain residues with an end cap or a label only (N-terminal biotin on a linker: ado-ado)

A further test addresses T1, GRIP1_5, Q9Y3R0.
T1 sequence (Q9Y3R0 568-668, limits assumed, looked up): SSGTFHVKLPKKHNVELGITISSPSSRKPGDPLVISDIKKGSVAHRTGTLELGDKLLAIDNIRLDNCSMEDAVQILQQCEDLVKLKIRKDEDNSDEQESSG

A further test addresses T2, DVL3, Q92997.
T2 sequence (Q92997 244-331, limits assumed, looked up): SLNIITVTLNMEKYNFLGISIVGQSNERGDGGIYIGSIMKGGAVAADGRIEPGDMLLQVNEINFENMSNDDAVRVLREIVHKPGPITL

In the next test the target is T3, DFNB31_1, Q9P202.
T3 sequence (Q9P202 135-233, limits assumed, looked up): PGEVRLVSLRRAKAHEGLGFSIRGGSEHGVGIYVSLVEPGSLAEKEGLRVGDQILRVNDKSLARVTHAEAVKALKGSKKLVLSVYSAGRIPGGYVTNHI

The target of a further test is T4, SHANK1, Q9Y566.
T4 sequence (Q9Y566 658-767, limits assumed, looked up): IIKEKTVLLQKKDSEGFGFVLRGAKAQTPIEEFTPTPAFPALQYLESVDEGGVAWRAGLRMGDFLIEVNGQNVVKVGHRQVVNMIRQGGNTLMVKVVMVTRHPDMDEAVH

The target of another test is T5, FRMPD1, Q5SYB0.
T5 sequence (Q5SYB0 52-145, limits assumed, looked up): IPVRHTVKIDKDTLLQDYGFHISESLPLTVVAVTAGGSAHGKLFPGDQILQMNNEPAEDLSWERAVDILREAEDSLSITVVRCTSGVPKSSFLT

A further test addresses T6, TJP3_3, O95049.
T6 sequence (O95049 375-456, limits assumed, looked up): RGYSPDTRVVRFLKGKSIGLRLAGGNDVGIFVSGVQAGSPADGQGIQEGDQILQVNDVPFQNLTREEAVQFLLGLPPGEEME

The next test has as its target T7, DFNB31_3, Q9P202.
T7 sequence (Q9P202 811-907, limits assumed, looked up): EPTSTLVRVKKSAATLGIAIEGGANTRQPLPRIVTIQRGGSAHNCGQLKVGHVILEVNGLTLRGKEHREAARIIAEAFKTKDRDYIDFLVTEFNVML

Another test concerns the target T8, HTRA4, P83105.
T8 sequence (P83105 378-476, limits assumed, looked up): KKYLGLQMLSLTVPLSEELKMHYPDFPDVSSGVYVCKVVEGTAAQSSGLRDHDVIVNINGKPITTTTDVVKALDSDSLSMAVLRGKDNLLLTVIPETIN

The next test has as its target T9, TX1BP3, O14907.
T9 sequence (O14907 10-122, limits assumed, looked up): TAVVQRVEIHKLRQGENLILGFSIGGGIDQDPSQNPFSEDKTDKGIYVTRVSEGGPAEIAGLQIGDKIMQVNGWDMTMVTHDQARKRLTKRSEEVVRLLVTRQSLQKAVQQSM

Another test addresses T10, TIAM2, Q8IVF5.
T10 sequence (Q8IVF5 885-986, limits assumed, looked up): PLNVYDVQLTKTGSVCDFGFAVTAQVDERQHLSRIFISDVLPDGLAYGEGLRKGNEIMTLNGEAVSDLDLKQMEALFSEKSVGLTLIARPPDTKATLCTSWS

For the next test, the target named is T11, DFNB31_2, Q9P202.
T11 sequence (Q9P202 274-371, limits assumed, looked up): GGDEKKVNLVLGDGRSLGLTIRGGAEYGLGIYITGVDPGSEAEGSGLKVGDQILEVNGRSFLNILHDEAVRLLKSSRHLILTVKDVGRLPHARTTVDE

The next test addresses T12, RAPGEF6, Q8TEU7.
T12 sequence (Q8TEU7 525-625, limits assumed, looked up): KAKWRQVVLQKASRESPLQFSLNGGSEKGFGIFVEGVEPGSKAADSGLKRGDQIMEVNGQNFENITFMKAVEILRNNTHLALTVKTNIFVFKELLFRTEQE

In another test the target is T13, CARD11, Q9BXL7.
T13 sequence (Q9BXL7 662-765, limits assumed, looked up): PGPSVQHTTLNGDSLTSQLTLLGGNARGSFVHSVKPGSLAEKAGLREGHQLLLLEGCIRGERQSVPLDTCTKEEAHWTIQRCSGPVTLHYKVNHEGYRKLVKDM

For a further test, the target named is T14, APBA1_1, Q02410.
T14 sequence (Q02410 651-752, limits assumed, looked up): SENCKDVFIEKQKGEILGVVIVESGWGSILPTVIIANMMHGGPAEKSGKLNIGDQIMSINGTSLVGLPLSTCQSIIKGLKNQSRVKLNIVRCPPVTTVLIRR

The target of another test is T15, LIN7C, Q9NUP9.
T15 sequence (Q9NUP9 88-185, limits assumed, looked up): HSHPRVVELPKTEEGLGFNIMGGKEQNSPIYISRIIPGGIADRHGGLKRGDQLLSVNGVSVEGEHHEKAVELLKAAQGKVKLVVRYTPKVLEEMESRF

Chain of HTRA1, Q92743 (Q92743 360-477): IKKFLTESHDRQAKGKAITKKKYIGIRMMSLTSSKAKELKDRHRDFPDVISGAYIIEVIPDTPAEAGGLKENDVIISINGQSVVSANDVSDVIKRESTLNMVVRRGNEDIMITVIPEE
Chain of DLG1_2, Q12959 (Q12959 314-412): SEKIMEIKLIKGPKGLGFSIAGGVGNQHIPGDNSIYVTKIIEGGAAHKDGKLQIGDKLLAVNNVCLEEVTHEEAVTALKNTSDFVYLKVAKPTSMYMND
Chain of MAGI2_2, Q86UL8 (Q86UL8 410-522): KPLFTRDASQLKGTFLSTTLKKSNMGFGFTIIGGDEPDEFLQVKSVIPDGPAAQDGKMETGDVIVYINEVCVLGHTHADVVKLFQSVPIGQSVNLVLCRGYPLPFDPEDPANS
Chain of MAGI2_3, Q86UL8 (Q86UL8 600-682): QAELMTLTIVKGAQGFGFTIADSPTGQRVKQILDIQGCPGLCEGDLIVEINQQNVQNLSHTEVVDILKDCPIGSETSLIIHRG
Chain of PDZRN4_1, Q6ZMN7 (Q6ZMN7 213-318): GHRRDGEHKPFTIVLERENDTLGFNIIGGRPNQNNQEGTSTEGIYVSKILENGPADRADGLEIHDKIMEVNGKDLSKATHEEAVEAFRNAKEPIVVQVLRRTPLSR
Chain of LIMK2, P53671 (P53671 143-248): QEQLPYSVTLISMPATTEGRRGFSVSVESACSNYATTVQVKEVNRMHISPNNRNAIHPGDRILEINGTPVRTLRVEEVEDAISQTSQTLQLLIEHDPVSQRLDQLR
Chain of NHERF4_4, Q86UT5 (Q86UT5 464-550): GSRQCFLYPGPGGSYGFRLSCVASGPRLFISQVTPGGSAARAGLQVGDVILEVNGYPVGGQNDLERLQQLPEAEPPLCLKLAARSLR

By pKd is commonly meant the Kd on a negative log10 scale, so that one unit is a factor of ten. QSYPSKHDYV [CLDN18, P56856]: the pKd result with GRIP1_5, Q9Y3R0 is “below the threshold”; in the test with DVL3, Q92997, 3.7; with DFNB31_1, Q9P202, 3.49; with SHANK1, Q9Y566, “below the threshold”; with HTRA1, Q92743, 4.32; in the test with FRMPD1, Q5SYB0, “below the threshold”. The pKd in the test with NHERF4_4, Q86UT5 was 4.03; with TJP3_3, O95049 it was 4.02; in the test with DFNB31_3, Q9P202, “below the threshold”; with HTRA4, P83105, 4.12; in the test with TX1BP3, O14907, 4.17; with TIAM2, Q8IVF5, “below the threshold”. Besides, the pKd result with PDZRN4_1, Q6ZMN7 was “below the threshold”; with DFNB31_2, Q9P202, “below the threshold”; in the test with RAPGEF6, Q8TEU7, “below the threshold”; with CARD11, Q9BXL7, “below the threshold”; with DLG1_2, Q12959 it was 3.71; with MAGI2_2, Q86UL8, “below the threshold”. Moreover, the pKd entry with APBA1_1, Q02410 was “below the threshold”; with LIMK2, P53671, “below the threshold”; in the test with MAGI2_3, Q86UL8 it was 3.62; in the test with LIN7C, Q9NUP9, “below the threshold”.

Consider RFQQRMQTHV [KIRREL1, Q96J84], for which the pKd result with GRIP1_5, Q9Y3R0 is “below the threshold”; with DVL3, Q92997 it was “below the threshold”; in the test with DFNB31_1, Q9P202, 3.52; with SHANK1, Q9Y566, 4.16; with HTRA1, Q92743 it was “below the threshold”; with FRMPD1, Q5SYB0, “below the threshold”. In addition, the pKd entry is “below the threshold” with NHERF4_4, Q86UT5; “below the threshold” with TJP3_3, O95049; 3.62 with DFNB31_3, Q9P202; 4.14 with HTRA4, P83105; 4.85 in the test with TX1BP3, O14907; 3.97 in the test with TIAM2, Q8IVF5. In addition, the negative logarithm of the Kd (pKd) result with PDZRN4_1, Q6ZMN7 is “below the threshold”; in the test with DFNB31_2, Q9P202, “below the threshold”; in the test with RAPGEF6, Q8TEU7, “below the threshold”; with CARD11, Q9BXL7, “below the threshold”; with DLG1_2, Q12959, 4.74; with MAGI2_2, Q86UL8 it was 5.49. The pKd result with APBA1_1, Q02410 was “below the threshold”; in the test with LIMK2, P53671 it was “below the threshold”; with MAGI2_3, Q86UL8 it was 3.75; with LIN7C, Q9NUP9, 3.69.

For the molecule LAHVKHKEQI [AQP3, Q92482], the pKd entry is listed as “below the threshold” with GRIP1_5, Q9Y3R0; “below the threshold” with DVL3, Q92997; “below the threshold” in the test with DFNB31_1, Q9P202; “below the threshold” with SHANK1, Q9Y566; “below the threshold” in the test with HTRA1, Q92743; “below the threshold” with FRMPD1, Q5SYB0. Besides, the pKd result was “below the threshold” with NHERF4_4, Q86UT5; “below the threshold” in the test with TJP3_3, O95049; “below the threshold” with DFNB31_3, Q9P202; 3.79 with HTRA4, P83105; “below the threshold” with TX1BP3, O14907; “below the threshold” in the test with TIAM2, Q8IVF5. Besides, the pKd entry is recorded as “below the threshold” in the test with PDZRN4_1, Q6ZMN7; “below the threshold” in the test with DFNB31_2, Q9P202; “below the threshold” with RAPGEF6, Q8TEU7; “below the threshold” in the test with CARD11, Q9BXL7; “below the threshold” in the test with DLG1_2, Q12959; “below the threshold” with MAGI2_2, Q86UL8. Further, the pKd result in the test with APBA1_1, Q02410 is “below the threshold”; in the test with LIMK2, P53671, “below the threshold”; with MAGI2_3, Q86UL8, “below the threshold”; with LIN7C, Q9NUP9, “below the threshold”.

For APIAGFSSFV [SDK2, Q58EX2], the pKd result with GRIP1_5, Q9Y3R0 was “below the threshold”; in the test with DVL3, Q92997, 3.88; with DFNB31_1, Q9P202, 3.79; with SHANK1, Q9Y566 it was “below the threshold”; with HTRA1, Q92743, 4.51; with FRMPD1, Q5SYB0, “below the threshold”. For the same molecule, the negative-log Kd (pKd) result in the test with NHERF4_4, Q86UT5 was “below the threshold”; in the test with TJP3_3, O95049, 3.82; with DFNB31_3, Q9P202 it was “below the threshold”; with HTRA4, P83105, “below the threshold”; in the test with TX1BP3, O14907, 4.84; with TIAM2, Q8IVF5, “below the threshold”. The negative-log Kd (pKd) was 3.79 in the test with PDZRN4_1, Q6ZMN7; 3.52 in the test with DFNB31_2, Q9P202; “below the threshold” with RAPGEF6, Q8TEU7; “below the threshold” in the test with CARD11, Q9BXL7; 4.45 in the test with DLG1_2, Q12959; 3.5 with MAGI2_2, Q86UL8. Moreover, the pKd result is reported as “below the threshold” with APBA1_1, Q02410; “below the threshold” in the test with LIMK2, P53671; “below the threshold” with MAGI2_3, Q86UL8; “below the threshold” with LIN7C, Q9NUP9.

As for REEPDHSTEV [CCRL2, O00421], the pKd result was “below the threshold” with GRIP1_5, Q9Y3R0; 3.48 with DVL3, Q92997; 4.03 with DFNB31_1, Q9P202; 4.13 in the test with SHANK1, Q9Y566; 4.44 in the test with HTRA1, Q92743; “below the threshold” with FRMPD1, Q5SYB0. Also, the pKd entry with NHERF4_4, Q86UT5 was “below the threshold”; in the test with TJP3_3, O95049, “below the threshold”; with DFNB31_3, Q9P202, “below the threshold”; with HTRA4, P83105, “below the threshold”; with TX1BP3, O14907, 3.49; with TIAM2, Q8IVF5 it was “below the threshold”. The pKd with PDZRN4_1, Q6ZMN7 was 4.17; with DFNB31_2, Q9P202, “below the threshold”; with RAPGEF6, Q8TEU7, “below the threshold”; in the test with CARD11, Q9BXL7, “below the threshold”; with DLG1_2, Q12959, 4.77; in the test with MAGI2_2, Q86UL8, “below the threshold”. Also, the pKd result with APBA1_1, Q02410 was “below the threshold”; with LIMK2, P53671, “below the threshold”; in the test with MAGI2_3, Q86UL8, “below the threshold”; with LIN7C, Q9NUP9 it was “below the threshold”.
